This is an account of results in the supplement of paper PMC10724198.

± gives the standard deviation of the averaged measurements.

In the data set the test system is Saccharomyces cerevisiae. Briefly: protein stability index of tFT-peptide fusion (C-terminal peptide) (PSI (0-1 scale)); higher = more stable (slower turnover). Particulars: temperature: 30 C. Here is the method: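 MPS profiling in S. cerevisiae of the yeast C-terminome library: the last 12 aa of each annotated ORF are fused to the C-terminus of a sfGFP-mCherry timer, after a GGGS linker. Cells are FACS-sorted into 8 mCherry/sfGFP bins and deep-sequenced. PSI runs from 0 (unstable) to 1 (stable); wild type and das1Δ backgrounds, two technical replicates each.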

Setting [1] is: genetic background: das1 deletion.

Turning to AYLQYYSESPEN [DUG1 C-terminal 12 aa], the protein stability index amounted to 0.707 ± 0.0053 under setting [1] and 0.724 ± 0.051 (genetic background: wild type).

For the sequence “CFFLRKENGKDE [YLR120W-A C-terminal 12 aa]”, the protein stability index under setting [1] is 0.709 ± 0.041 and the protein stability index (genetic background: wild type) was determined as 0.687 ± 0.017.

For the sequence “CHLLFGTHKKTL [YBL071C-B C-terminal 12 aa]”, the protein stability index is, setting by setting: under setting [1], 0.7233 ± 0.002; (genetic background: wild type) 0.6921 ± 0.003.

With CKQWEISNMLKK [CSI1 C-terminal 12 aa], the protein stability index worked out at 0.738 ± 0.023 under setting [1] and 0.664 ± 0.04 (genetic background: wild type).

Regarding CKYPTKDIPIFF [RAD17 C-terminal 12 aa], the protein stability index is 0.727 ± 0.013 under setting [1] and 0.734 ± 0.013 (genetic background: wild type).

As for CLSLDFVVPRPK [SHR5 C-terminal 12 aa], the protein stability index was determined as 0.74 ± 0.016 under setting [1] and 0.697 ± 0.048 (genetic background: wild type).

With “CMRPANQEIYPL [YLR157W-D C-terminal 12 aa]”, the protein stability index came out at 0.704 ± 0.02 under setting [1] and 0.681 ± 0.017 (genetic background: wild type).

In the case of CSGAAGKIYVCD [CDC40 C-terminal 12 aa], the protein stability index under setting [1] was 0.6678 ± 0.005 and the protein stability index (genetic background: wild type) is 0.723 ± 0.01.

CTSCGYKFRTNN [RPA12 C-terminal 12 aa] yielded a protein stability index under setting [1] of 0.7397 ± 0.0049 and a protein stability index (genetic background: wild type) of 0.2522 ± 0.002.

For the sequence CTSLLKGERKKE [RRT8 C-terminal 12 aa], the protein stability index is 0.6656 ± 0.00077 under setting [1] and 0.685 ± 0.012 (genetic background: wild type).

In the case of DAFEKAIEAVYA [ARG8 C-terminal 12 aa], the protein stability index under setting [1] turned out to be 0.546 ± 0.014 and the protein stability index (genetic background: wild type) stood at 0.558 ± 0.012.

Take DAFTDPRQYHLT [BUD19 C-terminal 12 aa]: the protein stability index runs as follows: under setting [1], 0.717 ± 0.0052; (genetic background: wild type) 0.69 ± 0.0082.

As for DAHIYNKRSKPD [PHO80 C-terminal 12 aa], the protein stability index is 0.646 ± 0.012 under setting [1] and 0.662 ± 0.04 (genetic background: wild type).

The sequence DDAKDSNNSSLR [WSC2 C-terminal 12 aa] yielded a protein stability index under setting [1] of 0.682 ± 0.011 and a protein stability index (genetic background: wild type) of 0.724 ± 0.0081.

Take DDAVNCNTSNCL [ZRC1 C-terminal 12 aa]: the protein stability index runs as follows: under setting [1], 0.7026 ± 0.002; (genetic background: wild type) 0.698 ± 0.017.

For DDEEATAMFKLE [IES1 C-terminal 12 aa], the protein stability index amounted to 0.715 ± 0.0089 under setting [1] and 0.6754 ± 0.0028 (genetic background: wild type).

In the case of DDNEPDEEANRA [RXT2 C-terminal 12 aa], the protein stability index by setting is: under setting [1], 0.672 ± 0.012; (genetic background: wild type) 0.6656 ± 0.0043.

As to DDTLERAGRIKN [FAD1 C-terminal 12 aa], the protein stability index is, setting by setting: under setting [1], 0.69 ± 0.023; (genetic background: wild type) 0.709 ± 0.019.

Regarding DECFCLARHEND [TDP1 C-terminal 12 aa], the protein stability index was found to be 0.7114 ± 0.0022 under setting [1] and 0.708 ± 0.023 (genetic background: wild type).

With DEKTLDSIGNSL [VCX1 C-terminal 12 aa], the protein stability index under setting [1] is 0.701 ± 0.0096 and the protein stability index (genetic background: wild type) amounted to 0.696 ± 0.013.

In the case of DENDKVIAIKVV [VPS25 C-terminal 12 aa], the protein stability index runs as follows: under setting [1], 0.5736 ± 0.00061; (genetic background: wild type) 0.525 ± 0.011.

In turn, DGFSVPITTFQT [CDC15 C-terminal 12 aa] gave a protein stability index under setting [1] of 0.712 ± 0.011 and a protein stability index (genetic background: wild type) of 0.709 ± 0.045.

For DHLHNLAQYWRT [VPS34 C-terminal 12 aa], the protein stability index by setting is: under setting [1], 0.697 ± 0.015; (genetic background: wild type) 0.703 ± 0.038.

For DIIKQGVNDIIV [ARD1 C-terminal 12 aa], the protein stability index worked out at 0.672 ± 0.015 under setting [1] and 0.717 ± 0.033 (genetic background: wild type).

Regarding DIISAFEEYKNA [SEC3 C-terminal 12 aa], the protein stability index under setting [1] was determined as 0.714 ± 0.036 and the protein stability index (genetic background: wild type) turned out to be 0.685 ± 0.026.

DLEEAANKAQPQ [YLR257W C-terminal 12 aa]: the protein stability index runs as follows: under setting [1], 0.6993 ± 0.0011; (genetic background: wild type) 0.7125 ± 0.0015.

As to DLESLFKEKLSI [ALA1 C-terminal 12 aa], the protein stability index is 0.7111 ± 0.0015 under setting [1] and 0.705 ± 0.02 (genetic background: wild type).

Turning to DLEVKLKKHKKN [TRZ1 C-terminal 12 aa], the protein stability index was 0.733 ± 0.029 under setting [1] and 0.676 ± 0.05 (genetic background: wild type).

For DLVKAAAGSDNE [RRP15 C-terminal 12 aa], the protein stability index reads like this: under setting [1], 0.6823 ± 0.0059; (genetic background: wild type) 0.675 ± 0.018.

Consider DLVKASSTLNVS [SDL1 C-terminal 12 aa], for which the protein stability index was 0.682 ± 0.0043 under setting [1] and 0.672 ± 0.0084 (genetic background: wild type).

As to DMGKNLLQNKKF [ERG2 C-terminal 12 aa], the protein stability index is, setting by setting: under setting [1], 0.695 ± 0.039; (genetic background: wild type) 0.695 ± 0.012.

Consider DNDDDAGAVPTS [CDC13 C-terminal 12 aa], for which the protein stability index was determined as 0.7113 ± 0.0012 under setting [1] and 0.684 ± 0.011 (genetic background: wild type).

For the sequence DPKLYFDATILS [TDA3 C-terminal 12 aa], the protein stability index under setting [1] was determined as 0.703 ± 0.025 and the protein stability index (genetic background: wild type) amounted to 0.691 ± 0.013.

Regarding DSQDMERMDSDS [YLR076C C-terminal 12 aa], the protein stability index by setting is: under setting [1], 0.691 ± 0.035; (genetic background: wild type) 0.745 ± 0.11.

In the case of DSQHKHDYSHSG [DCK1 C-terminal 12 aa], the protein stability index under setting [1] was 0.6787 ± 0.0061 and the protein stability index (genetic background: wild type) turned out to be 0.715 ± 0.035.

Turning to DTFPRWEGIKSK [PAD1 C-terminal 12 aa], the protein stability index by setting is: under setting [1], 0.70511 ± 2.5e-05; (genetic background: wild type) 0.6968 ± 0.0043.

Consider DVEDVERVSKKI [CDC34 C-terminal 12 aa], for which the protein stability index is, setting by setting: under setting [1], 0.704 ± 0.057; (genetic background: wild type) 0.67 ± 0.032.

As to DWESNQAKWIYE [YNK1 C-terminal 12 aa], the protein stability index reads like this: under setting [1], 0.752 ± 0.034; (genetic background: wild type) 0.718 ± 0.029.

As to DYKTKRNPSVLH [ISU2 C-terminal 12 aa], the protein stability index came to 0.6878 ± 0.0024 under setting [1] and 0.7106 ± 0.0056 (genetic background: wild type).

For the sequence DYSRRVLRLMNE [WSC4 C-terminal 12 aa], the protein stability index reads like this: under setting [1], 0.7058 ± 0.0028; (genetic background: wild type) 0.5834 ± 0.0049.

As to DYWRKRGISSVY [ECM38 C-terminal 12 aa], the protein stability index was determined as 0.68703 ± 0.00044 under setting [1] and 0.72719 ± 0.0003 (genetic background: wild type).

On to DYYFRTGVKRLQ [ARP10 C-terminal 12 aa], for which the protein stability index under setting [1] was determined as 0.705 ± 0.028 and the protein stability index (genetic background: wild type) amounted to 0.732 ± 0.044.

As for EAETPGIIDKHQ [SIS2 C-terminal 12 aa], the protein stability index was 0.689 ± 0.023 under setting [1] and 0.677 ± 0.044 (genetic background: wild type).

For the sequence “EALPPCLQIFRP [YDR354C-A C-terminal 12 aa]”, the protein stability index was found to be 0.701 ± 0.0091 under setting [1] and 0.6739 ± 0.0039 (genetic background: wild type).

With EAQLSCSEESLA [COS1 C-terminal 12 aa], the protein stability index under setting [1] stood at 0.69057 ± 5e-06 and the protein stability index (genetic background: wild type) stood at 0.683 ± 0.024.

EASEPFKTFKNT [MMS22 C-terminal 12 aa]: the protein stability index came out at 0.724 ± 0.0073 under setting [1] and 0.696 ± 0.0087 (genetic background: wild type).

As for EDDFGPKPKFFI [SWE1 C-terminal 12 aa], the protein stability index reads like this: under setting [1], 0.71 ± 0.011; (genetic background: wild type) 0.683 ± 0.039.

Turning to EEEEEEGKEGDA [SCT1 C-terminal 12 aa], the protein stability index runs as follows: under setting [1], 0.684 ± 0.012; (genetic background: wild type) 0.697 ± 0.0061.

With EEKKKQEEGHSN [MNN4 C-terminal 12 aa], the protein stability index is, setting by setting: under setting [1], 0.699 ± 0.0072; (genetic background: wild type) 0.663 ± 0.03.

Regarding EFAKCEFETPAV [CKB1 C-terminal 12 aa], the protein stability index under setting [1] worked out at 0.722 ± 0.011 and the protein stability index (genetic background: wild type) was found to be 0.74 ± 0.0048.
